# Test results reported in US20180155406A1 (Sanofi, published 2018).
# Numbered stars: 1 amine (or outer) side, 2 acyl side, 3 side chain; on linkers, the order of the positions; unused ones are H or OH. Square brackets hold non-standard residues; d marks the D form. Side chains are listed from the residue outwards. Ends that are not written are not given here. * marks the point of attachment. γGlu = O=C(O)[C@H](CCC(=O)[*:2])N[*:1]; Palmitoyl = CCCCCCCCCCCCCCCC(=O)*; Aib = CC(C)(N)C(=O)O
# T1: human GIP receptor (human, UniProt P48546 22-466)
# T1 sequence (looked up): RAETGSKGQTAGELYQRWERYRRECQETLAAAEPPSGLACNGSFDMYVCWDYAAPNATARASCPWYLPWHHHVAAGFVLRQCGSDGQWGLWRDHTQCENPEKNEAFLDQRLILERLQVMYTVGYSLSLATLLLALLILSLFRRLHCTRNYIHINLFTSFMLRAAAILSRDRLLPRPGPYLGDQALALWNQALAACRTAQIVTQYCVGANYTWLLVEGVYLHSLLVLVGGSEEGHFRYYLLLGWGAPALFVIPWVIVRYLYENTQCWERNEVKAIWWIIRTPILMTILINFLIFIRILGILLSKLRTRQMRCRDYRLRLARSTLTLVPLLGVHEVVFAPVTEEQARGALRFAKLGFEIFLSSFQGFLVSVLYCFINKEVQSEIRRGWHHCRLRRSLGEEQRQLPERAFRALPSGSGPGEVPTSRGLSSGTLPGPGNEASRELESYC
# B1: SEQ ID NO: 7 (peptide)
# peptide: H[Aib]HGTFTSDLSKLK([γGlu-γGlu-Palmitoyl])EEQRQKEFIEWLKA[dA]GHPS[Aib]KPPPK-NH2
# modifications: N-terminus assumed
# SMILES: CCCCCCCCCCCCCCCC(=O)N[C@@H](CCC(=O)N[C@@H](CCC(=O)NCCCC[C@H](NC(=O)[C@H](CC(C)C)NC(=O)[C@H](CCCCN)NC(=O)[C@H](CO)NC(=O)[C@H](CC(C)C)NC(=O)[C@H](CC(=O)O)NC(=O)[C@H](CO)NC(=O)[C@@H](NC(=O)[C@H](Cc1ccccc1)NC(=O)[C@@H](NC(=O)CNC(=O)[C@H](Cc1c[nH]cn1)NC(=O)C(C)(C)NC(=O)[C@@H](N)Cc1c[nH]cn1)[C@@H](C)O)[C@@H](C)O)C(=O)N[C@@H](CCC(=O)O)C(=O)N[C@@H](CCC(=O)O)C(=O)N[C@@H](CCC(N)=O)C(=O)N[C@@H](CCCNC(=N)N)C(=O)N[C@@H](CCC(N)=O)C(=O)N[C@@H](CCCCN)C(=O)N[C@@H](CCC(=O)O)C(=O)N[C@@H](Cc1ccccc1)C(=O)N[C@H](C(=O)N[C@@H](CCC(=O)O)C(=O)N[C@@H](Cc1c[nH]c2ccccc12)C(=O)N[C@@H](CC(C)C)C(=O)N[C@@H](CCCCN)C(=O)N[C@@H](C)C(=O)N[C@H](C)C(=O)NCC(=O)N[C@@H](Cc1c[nH]cn1)C(=O)N1CCC[C@H]1C(=O)N[C@@H](CO)C(=O)NC(C)(C)C(=O)N[C@@H](CCCCN)C(=O)N1CCC[C@H]1C(=O)N1CCC[C@H]1C(=O)N1CCC[C@H]1C(=O)N[C@@H](CCCCN)C(N)=O)[C@@H](C)CC)C(=O)O)C(=O)O
# B2: SEQ ID NO: 9 (peptide)
# peptide: H[Aib]HGTFTSDLSKLK([γGlu-γGlu-Palmitoyl])EEQRQKEFIEWLKA[dA]GPPS[Aib]KPPPK-NH2
# modifications: N-terminus assumed
# SMILES: CCCCCCCCCCCCCCCC(=O)N[C@@H](CCC(=O)N[C@@H](CCC(=O)NCCCC[C@H](NC(=O)[C@H](CC(C)C)NC(=O)[C@H](CCCCN)NC(=O)[C@H](CO)NC(=O)[C@H](CC(C)C)NC(=O)[C@H](CC(=O)O)NC(=O)[C@H](CO)NC(=O)[C@@H](NC(=O)[C@H](Cc1ccccc1)NC(=O)[C@@H](NC(=O)CNC(=O)[C@H](Cc1c[nH]cn1)NC(=O)C(C)(C)NC(=O)[C@@H](N)Cc1c[nH]cn1)[C@@H](C)O)[C@@H](C)O)C(=O)N[C@@H](CCC(=O)O)C(=O)N[C@@H](CCC(=O)O)C(=O)N[C@@H](CCC(N)=O)C(=O)N[C@@H](CCCNC(=N)N)C(=O)N[C@@H](CCC(N)=O)C(=O)N[C@@H](CCCCN)C(=O)N[C@@H](CCC(=O)O)C(=O)N[C@@H](Cc1ccccc1)C(=O)N[C@H](C(=O)N[C@@H](CCC(=O)O)C(=O)N[C@@H](Cc1c[nH]c2ccccc12)C(=O)N[C@@H](CC(C)C)C(=O)N[C@@H](CCCCN)C(=O)N[C@@H](C)C(=O)N[C@H](C)C(=O)NCC(=O)N1CCC[C@H]1C(=O)N1CCC[C@H]1C(=O)N[C@@H](CO)C(=O)NC(C)(C)C(=O)N[C@@H](CCCCN)C(=O)N1CCC[C@H]1C(=O)N1CCC[C@H]1C(=O)N1CCC[C@H]1C(=O)N[C@@H](CCCCN)C(N)=O)[C@@H](C)CC)C(=O)O)C(=O)O
# B3: SEQ ID NO: 10 (peptide)
# peptide: H[Aib]HGTFTSDLSKLK([γGlu-γGlu-Palmitoyl])EEQRQ[Aib]EFIEWLKAGGPPS[Aib]KPPPK-NH2
# modifications: N-terminus assumed
# SMILES: CCCCCCCCCCCCCCCC(=O)N[C@@H](CCC(=O)N[C@@H](CCC(=O)NCCCC[C@H](NC(=O)[C@H](CC(C)C)NC(=O)[C@H](CCCCN)NC(=O)[C@H](CO)NC(=O)[C@H](CC(C)C)NC(=O)[C@H](CC(=O)O)NC(=O)[C@H](CO)NC(=O)[C@@H](NC(=O)[C@H](Cc1ccccc1)NC(=O)[C@@H](NC(=O)CNC(=O)[C@H](Cc1c[nH]cn1)NC(=O)C(C)(C)NC(=O)[C@@H](N)Cc1c[nH]cn1)[C@@H](C)O)[C@@H](C)O)C(=O)N[C@@H](CCC(=O)O)C(=O)N[C@@H](CCC(=O)O)C(=O)N[C@@H](CCC(N)=O)C(=O)N[C@@H](CCCNC(=N)N)C(=O)N[C@@H](CCC(N)=O)C(=O)NC(C)(C)C(=O)N[C@@H](CCC(=O)O)C(=O)N[C@@H](Cc1ccccc1)C(=O)N[C@H](C(=O)N[C@@H](CCC(=O)O)C(=O)N[C@@H](Cc1c[nH]c2ccccc12)C(=O)N[C@@H](CC(C)C)C(=O)N[C@@H](CCCCN)C(=O)N[C@@H](C)C(=O)NCC(=O)NCC(=O)N1CCC[C@H]1C(=O)N1CCC[C@H]1C(=O)N[C@@H](CO)C(=O)NC(C)(C)C(=O)N[C@@H](CCCCN)C(=O)N1CCC[C@H]1C(=O)N1CCC[C@H]1C(=O)N1CCC[C@H]1C(=O)N[C@@H](CCCCN)C(N)=O)[C@@H](C)CC)C(=O)O)C(=O)O
# B4: SEQ ID NO: 11 (peptide)
# peptide: H[Aib]HGTFTSDLSKLK([γGlu-γGlu-Palmitoyl])EEQRQ[Aib]EFIEWLKA[dA]GPPS[Aib]KPPPK-NH2
# modifications: N-terminus assumed
# SMILES: CCCCCCCCCCCCCCCC(=O)N[C@@H](CCC(=O)N[C@@H](CCC(=O)NCCCC[C@H](NC(=O)[C@H](CC(C)C)NC(=O)[C@H](CCCCN)NC(=O)[C@H](CO)NC(=O)[C@H](CC(C)C)NC(=O)[C@H](CC(=O)O)NC(=O)[C@H](CO)NC(=O)[C@@H](NC(=O)[C@H](Cc1ccccc1)NC(=O)[C@@H](NC(=O)CNC(=O)[C@H](Cc1c[nH]cn1)NC(=O)C(C)(C)NC(=O)[C@@H](N)Cc1c[nH]cn1)[C@@H](C)O)[C@@H](C)O)C(=O)N[C@@H](CCC(=O)O)C(=O)N[C@@H](CCC(=O)O)C(=O)N[C@@H](CCC(N)=O)C(=O)N[C@@H](CCCNC(=N)N)C(=O)N[C@@H](CCC(N)=O)C(=O)NC(C)(C)C(=O)N[C@@H](CCC(=O)O)C(=O)N[C@@H](Cc1ccccc1)C(=O)N[C@H](C(=O)N[C@@H](CCC(=O)O)C(=O)N[C@@H](Cc1c[nH]c2ccccc12)C(=O)N[C@@H](CC(C)C)C(=O)N[C@@H](CCCCN)C(=O)N[C@@H](C)C(=O)N[C@H](C)C(=O)NCC(=O)N1CCC[C@H]1C(=O)N1CCC[C@H]1C(=O)N[C@@H](CO)C(=O)NC(C)(C)C(=O)N[C@@H](CCCCN)C(=O)N1CCC[C@H]1C(=O)N1CCC[C@H]1C(=O)N1CCC[C@H]1C(=O)N[C@@H](CCCCN)C(N)=O)[C@@H](C)CC)C(=O)O)C(=O)O
# B5: SEQ ID NO: 13 (peptide)
# peptide: H[Aib]HGTFTSDLSKLK([γGlu-γGlu-Palmitoyl])EEQRQ[Aib]EFIEWLKA[dA]GHPS[Aib]KPPPK-NH2
# modifications: N-terminus assumed
# SMILES: CCCCCCCCCCCCCCCC(=O)N[C@@H](CCC(=O)N[C@@H](CCC(=O)NCCCC[C@H](NC(=O)[C@H](CC(C)C)NC(=O)[C@H](CCCCN)NC(=O)[C@H](CO)NC(=O)[C@H](CC(C)C)NC(=O)[C@H](CC(=O)O)NC(=O)[C@H](CO)NC(=O)[C@@H](NC(=O)[C@H](Cc1ccccc1)NC(=O)[C@@H](NC(=O)CNC(=O)[C@H](Cc1c[nH]cn1)NC(=O)C(C)(C)NC(=O)[C@@H](N)Cc1c[nH]cn1)[C@@H](C)O)[C@@H](C)O)C(=O)N[C@@H](CCC(=O)O)C(=O)N[C@@H](CCC(=O)O)C(=O)N[C@@H](CCC(N)=O)C(=O)N[C@@H](CCCNC(=N)N)C(=O)N[C@@H](CCC(N)=O)C(=O)NC(C)(C)C(=O)N[C@@H](CCC(=O)O)C(=O)N[C@@H](Cc1ccccc1)C(=O)N[C@H](C(=O)N[C@@H](CCC(=O)O)C(=O)N[C@@H](Cc1c[nH]c2ccccc12)C(=O)N[C@@H](CC(C)C)C(=O)N[C@@H](CCCCN)C(=O)N[C@@H](C)C(=O)N[C@H](C)C(=O)NCC(=O)N[C@@H](Cc1c[nH]cn1)C(=O)N1CCC[C@H]1C(=O)N[C@@H](CO)C(=O)NC(C)(C)C(=O)N[C@@H](CCCCN)C(=O)N1CCC[C@H]1C(=O)N1CCC[C@H]1C(=O)N1CCC[C@H]1C(=O)N[C@@H](CCCCN)C(N)=O)[C@@H](C)CC)C(=O)O)C(=O)O
# Biological target: T1, human GIP receptor
# Assay: cell-based or functional assay
row,Binder,EC50 hGIP R (cAMP formation)
1,B1,2.6 pM
2,H[Aib]HGTFTSDLSKLK([γGlu-γGlu-Palmitoyl])EEQRQKEFIEWLKAGGPPS[Aib]KPPPK-NH2 [SEQ ID NO: 8],1.6 pM
3,B2,2.6 pM
4,B3,1.1 pM
5,B4,1.5 pM
6,H[Aib]HGTFTSDLSKLK([γGlu-γGlu-Palmitoyl])EEQRQ[Aib]EFIEWLKAGGHPS[Aib]KPPPK-NH2 [SEQ ID NO: 12],1.9 pM
7,B5,2.7 pM

# Biological target: human glucagon receptor (human, UniProt P47871 26-477)
# Assay: cell-based or functional assay
# human glucagon receptor, sequence (P47871 26-477): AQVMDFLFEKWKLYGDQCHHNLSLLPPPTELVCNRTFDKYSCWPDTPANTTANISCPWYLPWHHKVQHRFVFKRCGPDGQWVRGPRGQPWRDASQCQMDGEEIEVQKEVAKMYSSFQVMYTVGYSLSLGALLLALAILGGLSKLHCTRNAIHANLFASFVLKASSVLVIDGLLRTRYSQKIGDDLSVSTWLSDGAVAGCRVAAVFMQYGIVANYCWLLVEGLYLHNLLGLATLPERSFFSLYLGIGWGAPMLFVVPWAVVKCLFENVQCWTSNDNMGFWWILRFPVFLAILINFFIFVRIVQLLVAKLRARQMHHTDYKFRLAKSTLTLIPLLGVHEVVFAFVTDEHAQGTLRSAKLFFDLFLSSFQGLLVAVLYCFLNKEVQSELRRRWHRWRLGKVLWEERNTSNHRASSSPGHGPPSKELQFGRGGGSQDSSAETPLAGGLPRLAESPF
row,Binder,EC50 hGlucagon R (cAMP formation)
1,B1,3.2 pM
2,H[Aib]HGTFTSDLSKLK([γGlu-γGlu-Palmitoyl])EEQRQKEFIEWLKAGGPPS[Aib]KPPPK-NH2 [SEQ ID NO: 8],2 pM
3,B2,2.9 pM
4,B3,1.6 pM
5,B4,2.1 pM
6,H[Aib]HGTFTSDLSKLK([γGlu-γGlu-Palmitoyl])EEQRQ[Aib]EFIEWLKAGGHPS[Aib]KPPPK-NH2 [SEQ ID NO: 12],2 pM
7,B5,2.1 pM

# Biological target: human GLP-1 receptor (human, UniProt P43220 24-463)
# Assay: cell-based or functional assay
row,Binder,EC50 hGLP-1R (cAMP formation)
1,B1,1.7 pM
2,H[Aib]HGTFTSDLSKLK([γGlu-γGlu-Palmitoyl])EEQRQKEFIEWLKAGGPPS[Aib]KPPPK-NH2 [SEQ ID NO: 8],1.3 pM
3,B2,1.6 pM
4,B3,2.3 pM
5,B4,2.9 pM
6,H[Aib]HGTFTSDLSKLK([γGlu-γGlu-Palmitoyl])EEQRQ[Aib]EFIEWLKAGGHPS[Aib]KPPPK-NH2 [SEQ ID NO: 12],1.8 pM
7,B5,2.8 pM
